# Experimental data as given in patent publication US7718626B2, “ErbB3 binding protein compositions and methods of use” (University of Maryland, Baltimore, priority 2005, dated 2010).
# B1: Ebp1: ErbB3 binding protein (SEQ ID NO: 2), tested by stable ectopic expression (ebp1 transfection) in LNCaP cells (protein)
# chain: MSGEDEQQEQTIAEDLVVTKYKMGGDIANRVLRSLVEASSSGVSVLSLCEKGDAMIMEETGKIFKKEKEMKKGIAFPTSISVNNCVCHFSPLKSDQDYILKEGDLVKIDLGVHVDGFIANVAHTFVVDVAQGTQVTGRKADVIKAAHLCAEAALRLVKPGNQNTQVTEAWNKVAHSFNCTPIEGMLSHQLKQHVIDGEKTIIQNPTDQQKKDHEKAEFEVHEVYAVDVLVSSGEGKAKDAGQRTTIYKRDPSKQYGLKMKTSRAFFSEVERRFDAMPFTLRAFEDEKKARMGVVECAKHELLQPFNVLYEKEGEFVAQFKFTVLLMPNGPMRITSGPFEPDLYKSEMEVQDAELKALLQSSASRKTQKKKKKKASKTAENPTSGETLEENEAGD
# modifications: Homo Sapien
# Legend:
# Format in all cases: cell-based, human
# LNCaP cells [1] = experiment: Soft agar colony growth assay; conditions: highest cell concentration tested, ten days
# Description: (§1) Cell Growth Assays: To measure growth in complete media, cells (2×10^4) were seeded in triplicate in individual wells of 12-well tissue culture plates in RPMI-1640 with 10% FBS and cultured for the indicated number of days. Cells were trypsinized, stained with Trypan Blue (0.4%), and counted in a hemacytometer. For soft agar growth assays, increasing concentrations of cells (as indicated) were plated in 35 mm petri dishes in complete media and 0.3% Difco Bacto Agar over an 0.5% agar layer. Colonies were counted after 10 days of incubation. For studies assessing the effect of dihydrotestosterone (DHT) on cell growth, cells (2×10^4) were plated in 12-well plates in complete media. After a 24-hour attachment period, the medium was replaced with steroid-free medium [phenol red-free RPMI 1640 and 5% charcoal-stripped FBS (Sigma)] for 48 hours. The final concentration of testosterone in the steroid-reduced media was less than 5 pM. After 48 hours of steroid depletion, cells were re-fed with fresh steroid-reduced medium with or without the indicated concentrations of DHT and/or bicalutamide (10 μM), and total cell numbers were assessed 7 days later.
# The soft agar growth of ebp1 transfectants was also examined. LNCaP vector controls and ebp1 transfectants were seeded at concentrations between 1×10^4 and 1×10^5 cells per dish and colony growth in soft agar assessed ten days later. […]
# [2] = system: androgen-responsive genes in LNCaP cells; experiment: Microarray gene expression profiling of LNCaP cells stably transfected with ebp1; conditions: ebp1-overexpressing LNCaP cells vs controls
# Description: Microarray Analysis: First and second strand cDNA were synthesized from 5-15 μg of total RNA at Genome Explorations (Nashville, Tenn.) using the SuperScript Double-Stranded cDNA Synthesis Kit (Gibco Life Technologies, Gaithersburg, Md.) and an oligo-dT24-T7 (5′-GGCCAGTGAATTGTAATACGACTCACTATAGGGAGGCGG-3′) (SEQ ID NO: 3) primer according to the manufacturer's instructions. cRNA was synthesized labeled with biotinylated UTP and CTP by in vitro transcription using the T7 promoter-coupled, double-stranded cDNA as template and the T7 RNA Transcript Labeling Kit (ENZO Diagnostics Inc., Farmingdale, N.Y.). The fragmented cRNA was hybridized for U133A oligonucleotide arrays (Affymetrix, Santa Clara, Calif.) containing ˜33,000 full-length annotated genes, together with additional probe sets designed to represent EST sequences. The arrays were then stained with phycoerythrein-conjugated streptavidin (Molecular Probes, Eugene, Oreg.), and the fluorescence intensities were determined using a laser confocal scanner (Hewlett-Packard, Palo Alto, Calif.). The scanned images were analyzed using Microarray software (Affymetrix). Sample loading and variations in staining were standardized by scaling the average of the fluorescent intensities of all genes on an array to constant target intensity for all arrays used. The signal intensity for each gene was calculated as the average intensity difference, represented by [E(PM−MM)/(number of probe pairs)], where PM and MM denote perfect-match and mismatch probes. Data analysis was conducted using Microarray Suite 5.0 (Affymetrix) following user guidelines. Only genes with a minimum expression level of 500 were included in this analysis. […] AR-regulated genes include the Androgen Receptor (AR), PSA (kallikrein 3), Kallikrein 2, POV-1, TMPRSS2, and prostate-derived factor.
# Ectopic expression of Ebp1 downregulates androgen-regulated genes: Gene expression profiling of LNCaP cells stably transfected with ebp1 was used to determine the range of androgen-dependent genes affected by Ebp1 overexpression. These cells overexpress Ebp1 protein between two- and three-fold (Zhang et al., 2002, Repression of Androgen Receptor Mediated Transcription by the ErbB-3 Binding Protein Ebp1, Oncogene, 21: 5609-5618). Changes in gene expression were measured using microarray analysis of 33,000 transcripts on the Affymetrix U133A chip. To compile a list of differentially regulated genes, only those genes that were activated or repressed at least 3-fold (p <0.05, 500 minimum expression units) were included. […] Forty-one genes were induced and 126 were repressed. Seventy-two of these genes have HUGO approved names. […] These include the Androgen Receptor (3.7 fold decrease), PSA (3.7 fold decrease) as previously reported (Zhang et al., 2002, Repression of Androgen Receptor Mediated Transcription by the ErbB-3 Binding Protein Ebp1, Oncogene, 21: 5609-5618), Kallikrein 2 (3.2 fold decrease), POV-1 (5.0 fold decrease), TMPRSS2 (3.2 fold decrease), and prostate-derived factor (3.2 fold decrease). The Kallikrein 2 gene is regulated by AR, predominantly expressed in prostate tissue, secreted by LNCaP cells, and 78% homologous to PSA. […] The TMPRSS2 gene is androgen-regulated and also highly expressed in prostate and prostate cancer (Afar et al., 2001, Catalytic Cleavage of the Androgen-Regulated TMPRSS2 Protease Results in its Secretion by Prostate and Prostate Cancer Epithelia, Cancer Res., 61:1686-1692).
# [3] = system: secreted PSA of LNCaP cells; experiment: PSA secretion in conditioned media by ELISA; conditions: ebp1 transfectants vs controls
# Description: Measurement of PSA levels: Serum PSA levels were determined using a PSA ELISA kit from DSL, Inc (Webster, Tex.). […] Following a 1 h incubation and extensive washing of the plate, the wells were treated for 30 min with a second anti-PSA antibody labeled with horseradish peroxidase. After washing, the wells were treated with a tetramethylbendizine substrate for 10 min, and absorbance was read at 450 nm. The results of the microarray analysis were validated using real-time quantitative reverse-transcription PCR, Western blot, and ELISA methods. […] The expression of POV-1 mRNA and protein were each decreased about two-fold. PSA secretion in the conditioned media of ebp1 and vector control cells was assessed by ELISA. […] Finally, […]-2 mRNA expression was decreased approximately 40%.
# LNCaP cells [4] = experiment: Cell growth in complete media
# Description: as §1
# Growth Characteristics of LNCaP ebp1 transfectants: The growth rate of the ebp1-transfected cells in complete media was compared to that of cells transfected with the empty vector. […]
molecule,measurement,setting,value
B1,decrease of colony growth in soft agar,LNCaP cells [1],approximately 90%
same,"Androgen Receptor expression, fold decrease",[2],3.7 fold decrease
same,"Kallikrein 2 expression, fold decrease",[2],3.2 fold decrease
same,"POV-1 expression, fold decrease",[2],5.0 fold decrease
same,"PSA expression, fold decrease",[2],3.7 fold decrease
same,"TMPRSS2 expression, fold decrease",[2],3.2 fold decrease
same,"prostate-derived factor expression, fold decrease",[2],3.2 fold decrease
same,secreted PSA protein downregulation,[3],10 fold
same,growth rate in complete media,"LNCaP cells [4]; ebp1 transfectants vs vector control, p<0.05",significantly decreased
same,doubling time,"LNCaP cells [4]; ebp1 transfectants, complete media (vector control 48 hours)",72 h
